± gives the standard error. For some assays here: Fewer inactive variants are shown than the library holds.
B1: glmS ribozyme (parent)
chain: AUAAAAGCGCCAGAACUACAGAAAUGUAGUUGACGAGGAGGAGGUUUAUCGAAUUUUCGGCGGAUGCCUCCAAA

Columns and labels:
Conditions in all cases: with glucosamine-6-phosphate
[1] = variants of: B1; assay: kcat; higher = faster cleavage; RNA array
Outline: (§1)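 kcat and KM were obtained from weighted Michaelis–Menten fits across concentrations of kobs values. Those came from one- or two-exponential decay fits to per-tile medians normalised to baseline and to non-cleaving reference variants. The variants were barcoded ribozymes transcribed in situ by E. coli RNA polymerase on sequenced MiSeq chips and tracked through a hybridised Cy3 probe at 37 °C, with 40 μM to 10 mM glucosamine-6-phosphate in HEPES/KCl/Mg(OAc)2 buffer flowed in.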

[2] = variants of: B1; assay: KM; higher = weaker cofactor use; RNA array
Outline: as §1

[3] = variants of: B1; assay: self-cleavage kobs at 40 uM GlcN6P; higher = faster cleavage; RNA array
Outline: as §1

[4] = variants of: B1; assay: self-cleavage kobs at 160 uM GlcN6P; higher = faster cleavage; RNA array
Outline: as §1

[5] = variants of: B1; assay: self-cleavage kobs at 640 uM GlcN6P; higher = faster cleavage; RNA array
Outline: as §1

[6] = variants of: B1; assay: self-cleavage kobs at 2500 uM GlcN6P; higher = faster cleavage; RNA array
Outline: as §1

[7] = variants of: B1; assay: self-cleavage kobs at 10000 uM GlcN6P; higher = faster cleavage; RNA array
Outline: as §1

Variant	kcat [1]	KM [2]	self-cleavage kobs at 40 uM GlcN6P [3]	self-cleavage kobs at 160 uM GlcN6P [4]	self-cleavage kobs at 640 uM GlcN6P [5]	self-cleavage kobs at 2500 uM GlcN6P [6]	self-cleavage kobs at 10000 uM GlcN6P [7]
G41A C71U	0.000308 ± 7.8e-05 s⁻¹	697 ± 340 µM	3e-05 ± 6.9e-06 s⁻¹	5.5e-05 ± 7.2e-06 s⁻¹	0.000132 ± 1.5e-05 s⁻¹	0.000414 ± 5e-05 s⁻¹	0.00026 ± 3e-05 s⁻¹
A12C A48C	0.000151 ± 3.5e-05 s⁻¹	–	–	–	3.34e-05 ± 1.1e-05 s⁻¹	4.89e-05 ± 1.2e-05 s⁻¹	0.000111 ± 1.2e-05 s⁻¹
U46A U65C	0.000937 ± 0.00023 s⁻¹	2440 ± 1100 µM	–	4.37e-05 ± 1.8e-05 s⁻¹	0.00029 ± 6.2e-05 s⁻¹	0.000426 ± 8.2e-05 s⁻¹	0.000782 ± 0.00014 s⁻¹
C16U G29U	0.00871 ± 0.0037 s⁻¹	–	0.000315 ± 2.9e-05 s⁻¹	0.000639 ± 8.5e-05 s⁻¹	0.00245 ± 0.00028 s⁻¹	0.00415 ± 0.00061 s⁻¹	0.0111 ± 0.0014 s⁻¹
A39G A48C	0.000798 ± 0.00012 s⁻¹	2140 ± 600 µM	–	–	0.000196 ± 3.4e-05 s⁻¹	0.000468 ± 9e-05 s⁻¹	0.00063 ± 0.0001 s⁻¹
C50A C61U	< 1e-05 s⁻¹	–	–	–	< 1e-05 s⁻¹	–	–
A64G	0.0475 ± 0.0029 s⁻¹	2080 ± 150 µM	0.000914 ± 1.8e-05 s⁻¹	0.0031 ± 0.0002 s⁻¹	0.0109 ± 0.0004 s⁻¹	0.0249 ± 0.0011 s⁻¹	0.0412 ± 0.0018 s⁻¹
U56C	0.00571 ± 0.00066 s⁻¹	3050 ± 430 µM	7.94e-05 ± 1.5e-06 s⁻¹	0.000244 ± 8.9e-06 s⁻¹	0.000963 ± 2.5e-05 s⁻¹	0.00743 ± 0.0032 s⁻¹	0.00442 ± 0.00011 s⁻¹
U54C U65C	0.000618 ± 0.00021 s⁻¹	–	–	–	0.000249 ± 6.5e-05 s⁻¹	0.000743 ± 0.00016 s⁻¹	0.000465 ± 0.00013 s⁻¹
A39G A48U	0.00118 ± 0.00016 s⁻¹	5000 ± 1200 µM	–	–	0.000139 ± 3.1e-05 s⁻¹	0.000436 ± 8.7e-05 s⁻¹	0.000774 ± 0.00011 s⁻¹
C11A U57C	< 1e-05 s⁻¹	–	–	–	< 1e-05 s⁻¹	–	–
C10A U54G	< 1e-05 s⁻¹	–	< 1e-05 s⁻¹	–	–	–	–
U55G	0.0523 ± 0.0043 s⁻¹	2390 ± 240 µM	0.000889 ± 2.1e-05 s⁻¹	0.00312 ± 0.00021 s⁻¹	0.0103 ± 0.00037 s⁻¹	0.0271 ± 0.0015 s⁻¹	0.0436 ± 0.0021 s⁻¹
U54G C58U	0.000129 ± 7.5e-06 s⁻¹	6130 ± 820 µM	–	–	–	3.75e-05 ± 1.2e-05 s⁻¹	7.98e-05 ± 9.4e-06 s⁻¹
C11U G32U	0.000176 ± 8e-05 s⁻¹	–	–	–	–	–	3.94e-05 ± 5.4e-06 s⁻¹
A52G A53G	0.00183 ± 0.00052 s⁻¹	3690 ± 1700 µM	–	0.000131 ± 3e-05 s⁻¹	0.000264 ± 5.9e-05 s⁻¹	0.000638 ± 0.0001 s⁻¹	0.00145 ± 0.0002 s⁻¹
G63U C67U	< 1e-05 s⁻¹	–	< 1e-05 s⁻¹	–	< 1e-05 s⁻¹	–	–

Variant	kcat [1]	KM [2]	self-cleavage kobs at 40 uM GlcN6P [3]	self-cleavage kobs at 160 uM GlcN6P [4]	self-cleavage kobs at 640 uM GlcN6P [5]	self-cleavage kobs at 2500 uM GlcN6P [6]	self-cleavage kobs at 10000 uM GlcN6P [7]
C16G A53C	0.000746 ± 0.0001 s⁻¹	1750 ± 490 µM	–	4.82e-05 ± 2.3e-05 s⁻¹	0.000233 ± 6.3e-05 s⁻¹	0.000524 ± 0.00012 s⁻¹	0.000599 ± 0.0001 s⁻¹
C50G	0.000456 ± 6.7e-05 s⁻¹	90.7 ± 38 µM	0.000121 ± 1.5e-05 s⁻¹	0.000444 ± 4.8e-05 s⁻¹	0.000443 ± 4.5e-05 s⁻¹	0.000399 ± 4e-05 s⁻¹	0.000408 ± 5.8e-05 s⁻¹
G29C C68G	2.94e-05 ± 9e-06 s⁻¹	–	–	–	5.49e-05 ± 1.9e-05 s⁻¹	3.19e-05 ± 1.5e-05 s⁻¹	–
A53U G66A	0.0162 ± 0.0055 s⁻¹	2370 ± 1000 µM	0.000372 ± 5.2e-05 s⁻¹	0.000827 ± 0.00015 s⁻¹	0.00327 ± 0.00068 s⁻¹	0.00666 ± 0.0024 s⁻¹	0.0144 ± 0.0026 s⁻¹
A53U C67A	0.00367 ± 0.00077 s⁻¹	785 ± 230 µM	0.000214 ± 2.6e-05 s⁻¹	0.000559 ± 8.4e-05 s⁻¹	0.0014 ± 0.00022 s⁻¹	–	0.00376 ± 0.00054 s⁻¹
A53G G66A	0.0293 ± 0.014 s⁻¹	–	0.000617 ± 0.00011 s⁻¹	–	0.00474 ± 0.0013 s⁻¹	0.0128 ± 0.005 s⁻¹	0.0293 ± 0.0075 s⁻¹
A36C U69C	1.31e-05 ± 3.1e-06 s⁻¹	–	–	–	–	< 1e-05 s⁻¹	–
A33U C61U	< 1e-05 s⁻¹	–	–	–	< 1e-05 s⁻¹	–	–
C16U U57G C61A	1.37e-05 ± 2e-06 s⁻¹	–	–	–	–	–	–
U47G A64G	0.0089 ± 0.0018 s⁻¹	1570 ± 460 µM	0.000278 ± 4.5e-05 s⁻¹	0.000742 ± 0.00017 s⁻¹	0.00203 ± 0.00049 s⁻¹	0.00542 ± 0.0013 s⁻¹	0.00828 ± 0.0015 s⁻¹
A12C G13A	0.000473 ± 0.00016 s⁻¹	–	–	–	6.42e-05 ± 1.2e-05 s⁻¹	0.000302 ± 5.1e-05 s⁻¹	0.00032 ± 5.7e-05 s⁻¹
U56C G60A	1.14e-05 ± 1.1e-07 s⁻¹	1070 ± 61 µM	–	–	–	–	–
C11A A52U C67G	2.85e-05 ± 4.6e-06 s⁻¹	–	–	–	–	–	–
U31G A39U	0.0136 ± 0.0028 s⁻¹	3520 ± 930 µM	0.000179 ± 1.6e-05 s⁻¹	0.000492 ± 7.3e-05 s⁻¹	0.00183 ± 0.00041 s⁻¹	0.00485 ± 0.00084 s⁻¹	0.0106 ± 0.0011 s⁻¹
U30A C67A	0.00161 ± 0.00066 s⁻¹	–	4.92e-05 ± 9.2e-06 s⁻¹	0.00014 ± 3.7e-05 s⁻¹	0.000231 ± 4.7e-05 s⁻¹	0.00102 ± 0.00018 s⁻¹	0.00131 ± 0.0002 s⁻¹
C10U G35C	< 1e-05 s⁻¹	–	< 1e-05 s⁻¹	< 1e-05 s⁻¹	< 1e-05 s⁻¹	–	–

From the supplement of paper PMC7125110
